Experimental data published in article PMC4914101 (Nucleic Acids Research, 2016).
Read-outs that look alike come from different tables or passages of the source.

T1: SART3 HAT repeat domain (residues 94–611) (human, UniProt Q15020 94-611)
T1 sequence (looked up): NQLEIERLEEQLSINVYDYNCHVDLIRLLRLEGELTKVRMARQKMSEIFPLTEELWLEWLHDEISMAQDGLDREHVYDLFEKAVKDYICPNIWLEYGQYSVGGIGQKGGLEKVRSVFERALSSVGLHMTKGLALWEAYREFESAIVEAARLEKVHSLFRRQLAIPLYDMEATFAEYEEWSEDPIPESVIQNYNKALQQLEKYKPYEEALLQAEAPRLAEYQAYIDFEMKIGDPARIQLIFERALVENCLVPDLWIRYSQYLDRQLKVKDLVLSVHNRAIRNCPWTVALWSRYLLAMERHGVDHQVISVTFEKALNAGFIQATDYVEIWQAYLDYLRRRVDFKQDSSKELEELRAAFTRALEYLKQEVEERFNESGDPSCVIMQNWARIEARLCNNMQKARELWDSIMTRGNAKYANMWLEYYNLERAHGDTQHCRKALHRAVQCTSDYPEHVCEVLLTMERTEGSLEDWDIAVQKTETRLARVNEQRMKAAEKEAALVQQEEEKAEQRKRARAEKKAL

B1: SART3 HAT-C with Lα (residues 278–611) (domain or fragment, human, UniProt Q15020 278-611, looked up)
chain: PESVIQNYNKALQQLEKYKPYEEALLQAEAPRLAEYQAYIDFEMKIGDPARIQLIFERALVENCLVPDLWIRYSQYLDRQLKVKDLVLSVHNRAIRNCPWTVALWSRYLLAMERHGVDHQVISVTFEKALNAGFIQATDYVEIWQAYLDYLRRRVDFKQDSSKELEELRAAFTRALEYLKQEVEERFNESGDPSCVIMQNWARIEARLCNNMQKARELWDSIMTRGNAKYANMWLEYYNLERAHGDTQHCRKALHRAVQCTSDYPEHVCEVLLTMERTEGSLEDWDIAVQKTETRLARVNEQRMKAAEKEAALVQQEEEKAEQRKRARAEKKAL

How the values were obtained:
[1] = biological target: mouse importin-α2 (residues 70–498) (mouse, UniProt P52293 70-498); experiment: ITC
[2] = biological target: T1, SART3 HAT repeat domain (residues …); experiment: ITC
[3] = biological target: T1, SART3 HAT repeat domain (residues …); experiment: ITC; remark: listed apart in the source
[4] = biological target: B1; experiment: ITC
crystal structure = biological target: the molecule itself; experiment: crystal structure

Kd [2] [nM] | dH [2] [kcal/mol] | stoichiometry N [2] | Kd [3] [nM] | dH [3] [kcal/mol] | stoichiometry N [3] | Kd [4] [nM] | dH [4] [kcal/mol] | stoichiometry N [4] | Binder | also measured
 |  |  |  |  |  |  |  |  | RKRARAEKKALKKKKKIRGPEKRGADEDDEKEWGDDEEEQPSKRRRVEN (domain or fragment) [SART3 NLS (residues 601–649)] | Kd [1]: 210 ± 10 nM; dH [1]: -8.6 ± 0.2 kcal/mol; stoichiometry N [1]: 1.01 ± 0.01
20100 ± 4360 | -9.1 ± 0.4 | 0.89 ± 0.15 |  |  |  |  |  |  | USP11^L4 (USP11 DUSP-UBL with the linker replaced by the USP4 linker) (domain or fragment, human, UniProt P51784 73-288, looked up) EELPGLDSQWRQIENGESGRERPLRAGESWFLVEKHWYKQWEAYVQGGDQDSSTFPGCINNATLFQDEINWRLKEGLVEGEDYVLLPAAAWHYLVSWYGLEHGQPPIERKVIEHGLFVKHCKVEVYPVELLLVRHNDLGKSHTVQFSHTDSIGLVLRTARERFLVEPQEDTRLWAKNSEGSLDRLYDTHITVLDAALETGQLIIMETRKKDGTWPSAQL | 
18700 ± 2250 | -5.7 ± 0.7 | 1.06 ± 0.09 |  |  |  |  |  |  | USP11^L15 (USP11 DUSP-UBL with the linker replaced by the USP15 linker) (domain or fragment, human, UniProt P51784 73-288, looked up) EELPGLDSQWRQIENGESGRERPLRAGESWFLVEKHWYKQWEAYVQGGDQDSSTFPGCINNATLFQDEINWRLKEGLVEGEDYVLLPAAAWHYLVSWYGLEHGQPPIERKVIEQGMFVKHCKVEVYPVELLLVRHNDLGKSHTVQFSHTDSIGLVLRTARERFLVEPQEDTRLWAKNSEGSLDRLYDTHITVLDAALETGQLIIMETRKKDGTWPSAQL | 
 |  |  | 190 ± 40 | -16.1 ± 0.1 | 0.99 ± 0.01 | 140 ± 60 | -17.7 ± 0.5 | 1.09 ± 0.01 | DUSP-UBL domains of human USP15 (residues 1–226) (domain or fragment, UniProt Q9Y4E8 1-226, looked up) MAEGGAADLDTQRSDIATLLKTSLRKGDTWYLVDSRWFKQWKKYVGFDSWDKYQMGDQNVYPGPIDNSGLLKDGDAQSLKEHLIDELDYILLPTEGWNKLVSWYTLMEGQEPIARKVVEQGMFVKHCKVEVYLTELKLCENGNMNNVVTRRFSKADTIDTIEKEIRKIFSIPDEKETRLWNKYMSNTFEPLNKPDSTIQDAGLYQGQVLVIEQKNEDGTWPRGPST | 
 |  |  |  |  |  |  |  |  | B1 | binding result (crystal structure): binds
 |  |  | 880 ± 130 | -21.6 ± 0.6 | 1.07 ± 0.02 | 580 ± 30 | -21.1 ± 0.4 | 1.05 ± 0.01 | DUSP-UBL domains of human USP4 (residues 1–230) (domain or fragment, UniProt Q13107 1-230, looked up) MAEGGGCRERPDAETQKSELGPLMRTTLQRGAQWYLIDSRWFKQWKKYVGFDSWDMYNVGEHNLFPGPIDNSGLFSDPESQTLKEHLIDELDYVLVPTEAWNKLLNWYGCVEGQQPIVRKVVEHGLFVKHCKVEVYLLELKLCENSDPTNVLSCHFSKADTIATIEKEMRKLFNIPAERETRLWNKYMSNTYEQLSKLDNTVQDAGLYQGQVLVIEPQNEDGTWPRQTLQ | 
